Results as given in the supplement of paper PMC10567573.

B1: ETS1 (parent)
chain: YVRDRADLNKDKPVIPAAALAGYT
B2: TPRG1 (parent)
chain: ETIQGFWLLTKIDHWNNEKERILL

Variants of: B1
Assay: protein stability index of a GFP-peptide fusion (GPS, HEK-293T) (PSI 1-6); higher = more stable
Settings: c terminus: a fixed tail appended
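Further: lentivirally expressed fusions sorted by FACS into six bins by GFP to DsRed ratio, PSI derived from sequencing read proportions per bin multiplied by bin number.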

Protein stability index, by site and new letter:
N9: D 1.59; G 2.29; H 3.44; F 2.21; Y 2.84; R 3.34; M 1.96; I 2.58; K 2.31; A 2.17; V 2.57; E 1.98; L 2.81; W 3.77; T 2.75; P 2.29; Q 1.66; C 2.48; S 1.77
P13: V 2.77; C 1.8; T 2.4; G 2.23; Q 1.63; R 3.04; L 2.82; D 1.63; K 2.4; E 1.74; S 1.62; A 1.53; H 2.36; I 1.88; N 2.46; Y 2.59; M 1.95; F 2.85; W 2.13
I15: H 2.29; R 1.86; N 3.26; A 2.8; M 2.7; Y 1.95; P 2.63; L 2.16; G 2.09; Q 2.57; E 1.77; T 1.91; W 2.77; C 2.84; K 2.26; V 1.56; S 2.36; D 1.93; F 1.8
P16: W 2.19; S 1.64; R 3.04; Y 2.98; E 2.05; T 2.14; Q 2.37; I 2.23; K 2.13; V 2.44; L 2.52; M 2.56; C 2.57; F 3.22; D 2.54; N 2.33; H 2.1; G 1.93; A 3.14
A6: T 1.88; D 1.8; F 2.46; H 1.87; L 1.55; M 3.35; C 2; Q 2.35; V 2.29; E 2.27; W 2.71; R 1.72; N 2.08; K 1.2; P 1.61; Y 2.28; I 2.76; G 2.49; S 2.05
R5: E 2.36; Q 1.57; P 1.72; I 3.08; G 2.24; S 2.23; Y 2.7; L 1.82; F 3.08; M 1.56; C 2.36; V 1.44; K 2.11; N 1.94; H 1.95; A 2.12; D 2.14; W 2.48; T 2.02
R3: C 1.75; P 2.43; G 2.08; S 2.12; V 1.55; L 1.55; I 1.66; F 2.33; Y 2.54; T 2.3; D 2.88; H 1.77; N 2.43; Q 2.08; K 2.56; W 1.68; E 2.76; M 1.52; A 2.24
A17: L 2.04; G 3.1; F 1.76; E 2.19; I 2.52; C 2.97; K 1.98; Q 1.87; P 1.79; D 1.41; N 1.64; M 1.38; H 2.15
D11: F 2.42; T 2.16; M 2.31; V 3.03; P 3.65; N 2.91; K 1.77; H 3.35; I 2.08; W 2.56; G 3.03; Y 2.59; A 2.28; S 2.9; E 2.5; L 4.14; C 2.46; Q 2.78; R 2.17
K10: W 2.19; G 2.97; E 1.88; D 2.58; F 3.25; I 2.23; H 2.18; R 2.24; T 2.67; Y 1.97; N 2.08; V 1.55; Q 2.55; M 2.32; L 2.62; A 2.58; S 1.59; C 2.75; P 2.6
D7: P 3.16; Y 2.37; T 3.92; M 2.6; H 2.91; N 2.98; F 2.17; G 2.56; K 2.99; L 2.51; A 2.05; Q 2.77; E 2.37; W 2.52; S 1.72; I 3.04; C 2.17; V 3.53; R 3.02
K12: R 2.08; P 1.95; F 2.1; H 2.29; G 2.17; L 2.47; M 1.9; A 2.39; W 2.43; Y 1.94; D 2.04; N 2.29; C 2.13; E 1.79; S 2.48; T 2.02; I 2.19; V 2.47; Q 2.48
L8: N 2.53; E 2.11; S 1.72; G 2.12; T 2.44; C 1.96; P 1.87; F 2.72; A 2.17; V 2.31; D 1.67; R 1.88; W 2.23; Q 1.77; I 2.64; H 2.29; Y 2.9; K 2.19; M 2.9
Y1: G 4.02; P 3.92; E 4.38; D 4.43; R 3.88; M 3.85; V 3.65; A 4.46; C 3.31; I 3.73; K 4.18; Q 4.41; F 2.22; H 3.7; S 4.24; L 3.79; W 3.77; T 4.03; N 4.3
V2: G 3.53; P 3; C 2.25; K 3.61; F 2.88; Q 2.93; N 3.77; H 2.46; S 3.76; M 3.81; A 4.01; L 3.69; R 3.79; D 4.34; E 4.25; I 2.17; Y 3.5; T 3.5; W 3.19
V14: G 2.18; C 2.54; L 2.79; M 2.75; F 2.99; D 2.17; Q 1.4; P 1.92; H 2.23; I 1.63; W 2.4; E 1.97; A 1.73; Y 1.8; R 2.67; N 2.34; T 2.66; K 2.34; S 2.84
D4: R 2.1; S 1.77; I 2.05; Y 3.23; K 2.07; L 2.03; F 2.32; H 1.94; Q 1.57; P 2.24; M 3.45; G 2.47; N 3.01; W 1.83; A 2.68; C 3.5; E 1.79; T 3.02

Variants of: B2
Assay: as above
Settings: c terminus: a fixed tail appended

Protein stability index, by site and new letter:
L23: S 3.2; T 2.42; V 3.52; Q 1.78; Y 4.45; P 1.95; R 1.77; W 3.52
L24: H 4.13; Q 3.61; M 2.21; G 4.41; V 2.5; C 2.36; N 3.07; W 2.52; K 2.24; P 2.8
